According to PMC3064986 (Biochemical and biophysical research communications, 2011):

B1: yeast ornithine decarboxylase (Saccharomyces cerevisiae SPE1) (enzyme, UniProt P08432 1-466, looked up)
chain: MSSTQVGNALSSSTTTLVDLSNSTVTQKKQYYKDGETLHNLLLELKNNQDLELLPHEQAHPKIFQALKARIGRINNETCDPGEENSFFICDLGEVKRLFNNWVKELPRIKPFYAVKCNPDTKVLSLLAELGVNFDCASKVEIDRVLSMNISPDRIVYANPCKVASFIRYAASKNVMKSTFDNVEELHKIKKFHPESQLLLRIATDDSTAQCRLSTKYGCEMENVDVLLKAIKELGLNLAGVSFHVGSGASDFTSLYKAVRDARTVFDKAANEYGLPPLKILDVGGGFQFESFKESTAVLRLALEEFFPVGCGVDIIAEPGRYFVATAFTLASHVIAKRKLSENEAMIYTNDGVYGNMNCILFDHQEPHPRTLYHNLEFHYDDFESTTAVLDSINKTRSEYPYKVSIWGPTCDGLDCIAKEYYMKHDVIVGDWFYFPALGAYTSSAATQFNGFEQTADIVYIDSELD
B2: yeast antizyme (Saccharomyces cerevisiae), N-terminal 6XHis-tagged, full length (natural protein, UniProt Q02803 1-292, looked up)
chain: MYEVIQKRKTKIINVLQSPELMRLIEDPSNLGISLHFPVSSLLKSNKCTPMPKLSTYSLASGGFKDWCADIPLDVPPEIDIIDFYWDVILCMESQFILDYNVPSKNKGNNQKSVAKLLKNKLVNDMKTTLKRLIYNENTKQYKNNNSHDGYNWRKLGSQYFILYLPLFTQELIWCKLNENYFHVVLPSLLNSRNVHDNHSTYINKDWLLALLELTSNLNQNFKFEYMKLRLYILRDDLINNGLDLLKNLNWVGGKLIKNEDREVLLNSTDLATDSISHLLGDENFVILEFEC

Experiments:
[1] = target: B2; assay: SEC-MALS
[2] = target: B1; assay: SPR

| stoichiometry N [1] [ODC per AZ] | Kd [2] [nM] | kon [2] [M⁻¹ s⁻¹] | Binder |
| --- | --- | --- | --- |
| 1 | – | – | B1 |
| – | 17.3 | 31400 | B2 |
